In assay [1] the target is T1, ADAM12-Cat (truncated ADAM12 protein consisting of only the pro and catalytic domains) (human, UniProt O43184-2 29-419).
T1 sequence (looked up): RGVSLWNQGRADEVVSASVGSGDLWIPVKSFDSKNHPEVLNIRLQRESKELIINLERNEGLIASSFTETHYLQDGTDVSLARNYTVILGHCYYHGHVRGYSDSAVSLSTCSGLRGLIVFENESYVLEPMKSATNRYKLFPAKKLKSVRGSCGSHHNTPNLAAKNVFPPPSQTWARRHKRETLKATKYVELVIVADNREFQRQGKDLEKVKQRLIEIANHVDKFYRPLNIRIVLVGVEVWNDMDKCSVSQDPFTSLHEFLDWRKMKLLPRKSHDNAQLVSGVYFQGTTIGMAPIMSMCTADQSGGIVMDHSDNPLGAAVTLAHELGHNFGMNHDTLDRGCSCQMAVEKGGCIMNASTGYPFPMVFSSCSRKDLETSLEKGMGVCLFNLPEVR
The assay is described as follows: enzyme inhibition kinetics.

For assay [2], the target named is T2, ADAM12-S (shorter secreted form of ADAM12), full-length (human, UniProt O43184-2 29-707).
T2 sequence (looked up): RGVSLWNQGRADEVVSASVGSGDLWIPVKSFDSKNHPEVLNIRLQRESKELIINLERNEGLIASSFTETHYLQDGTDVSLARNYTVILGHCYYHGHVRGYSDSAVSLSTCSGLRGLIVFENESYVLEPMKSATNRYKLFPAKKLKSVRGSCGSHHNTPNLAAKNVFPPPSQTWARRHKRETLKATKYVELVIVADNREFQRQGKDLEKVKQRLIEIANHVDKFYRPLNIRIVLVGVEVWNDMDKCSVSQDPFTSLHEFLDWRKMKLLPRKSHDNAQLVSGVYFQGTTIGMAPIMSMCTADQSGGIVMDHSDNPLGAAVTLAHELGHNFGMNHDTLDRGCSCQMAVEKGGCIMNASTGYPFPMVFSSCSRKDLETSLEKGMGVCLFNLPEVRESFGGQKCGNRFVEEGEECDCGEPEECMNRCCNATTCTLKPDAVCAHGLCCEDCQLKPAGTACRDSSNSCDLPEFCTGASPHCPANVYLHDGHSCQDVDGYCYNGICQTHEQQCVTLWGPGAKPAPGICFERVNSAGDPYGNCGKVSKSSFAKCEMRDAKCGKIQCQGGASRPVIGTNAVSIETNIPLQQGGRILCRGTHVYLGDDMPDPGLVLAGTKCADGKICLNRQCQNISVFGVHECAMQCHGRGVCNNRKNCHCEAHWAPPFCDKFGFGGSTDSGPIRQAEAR
In words: enzyme inhibition kinetics.

B1: N-TIMP-3 (N-terminal domain of TIMP-3), wild-type (domain or fragment, human)
chain: CTCSPSHPQDAFCNSDIVIRAKVVGKKLVKEGPFGTLVYTIKQMKMYRGFTKMPHVQYIHTEASESLCGLKLEVNKYQYLLTGRVYDGKMYTGLCNFVERWDQLTLSQRKGLNYRYHLGCN
Regarding B1, the results for the Ki in assay [1] and in assay [2] were 0.93 nM and 4.4 nM, respectively.

B2: TIMP-1 (tissue inhibitor of metalloproteinases 1), full-length (natural protein)
chain: not shown
Take B2: the values for the Ki in assay [1] and in assay [2] were 741 nM and 223 nM, respectively.

The values are drawn from publication PMC3025530 (The Biochemical journal, 2010).
